Assay results published in patent US20180319855A1, “GENETICALLY MUTATED AEQUORIN-BASED BIOSENSORS WITH EXTRA SENSITIVITY TO CALCIUM AND IMPROVED BIOLUMINESCENCE INTENSITY” (CENTRE NATIONAL DE LA RECHERCHE SCIENTIFIQUE (CNRS), priority 2015, published 2018).
Residue numbers refer to the chain shown, from its start. In names and notes the source's numbering stands. Like-named read-outs stand apart in the source and are kept apart here.

B1: Redq/Q159T: aporedquorin (tdTomato-aequorin fusion) mutant Q159T (SEQ ID NO:22) (protein)
chain: MVSKGEEVIKEFMRFKVRMEGSMNGHEFEIEGEGEGRPYEGTQTAKLKVTKGGPLPFAWDILSPQFMYGSKAYVKHPADIPDYKKLSFPEGFKWERVMNFEDGGLVTVTQDSSLQDGTLIYKVKMRGTNFPPDGPVMQKKTMGWEASTERLYPRDGVLKGEIHQALKLKDGGHYLVEFKTIYMAKKPVQLPGYYYVDTKLDITSHNEDYTIVEQYERSEGRHHLFLGHGTGSTGSGSSGTASSEDNNMAVIKEFMRFKVRMEGSMNGHEFEIEGEGEGRPYEGTQTAKLKVTKGGPLPFAWDILSPQFMYGSKAYVKHPADIPDYKKLSFPEGFKWERVMNFEDGGLVTVTQDSSLQDGTLIYKVKMRGTNFPPDGPVMQKKTMGWEASTERLYPRDGVLKGEIHQALKLKDGGHYLVEFKTIYMAKKPVQLPGYYYVDTKLDITSHNEDYTIVEQYERSEGRHHLFLSGFDNPRWIGRHKHMFNFLDVNHNGKISLDEMVYKASDIVINNLGATPEQAKRHKDAVEAFFGGAGMKYGVETDWPAYIEGWKKLATDELEKYAKNEPTLIRIWGDALFDIVDKDQNGAITLDEWKAYTKAAGIIQSSEDCEETFRVCDIDESGTLDVDEMTRQHLGFWYTMDPACEKLYGGAVP
modifications: mutant aequorin
B2: Redq/Q159D: aporedquorin (tdTomato-aequorin fusion) mutant Q159D (SEQ ID NO:21) (protein)
chain: B1 chain with T623D
modifications: mutant aequorin

Legend:
[1] = Thermostability: relative bioluminescence activity after 30 min incubation; format: physicochemical; settings: CLZ-f
How it was run: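 Purified photoprotein was reconstituted with CLZ-f and read for total counts with saturating calcium (50 mM Tris-HCl, 100 mM CaCl2, pH 7.5). It was then held at 30 to 40 °C for 30 min, re-equilibrated for 15 min and read again. Activity is 2nd/1st counts ×100.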

[2] = Ca2+ sensitivity curves of reconstituted photoproteins (L/Lmax vs free Ca2+); format: biochemical; settings: for EC50: redquorin series, CitA, GA, read-out: Calcium sensitivity, EC50; for Relative intensity at pCa 6.5 / Relative intensity at pCa 7.2: relative to Redq
How it was run: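 Purified apoaequorin/redquorin mutants reconstituted overnight at 4 °C with 5 μM CLZ-f or native CLZ, then moved to zero-Ca2+ MOPS/KCl/EGTA buffer, pH 7.2. Luminescence in EGTA-buffered free-Ca2+ solutions, then saturating CaCl2 to obtain Lmax; EC50 from variable-slope sigmoidal fit of L/Lmax.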

| Molecule | Thermostability, luminescence activity relative to wt-aequorin ([1]; 30° C. for 30 min) | Thermostability, luminescence activity relative to wt-aequorin ([1]; 40° C. for 30 min) | EC50 ([2]; CLZ-f) | Relative intensity at pCa 6.5 ([2]; CLZ-f) | Relative intensity at pCa 7.2 ([2]; CLZ-f) | Relative intensity at pCa 6.5 ([2]; CLZ-f, listed as Redq/QT) | EC50 ([2]; CLZ-native) | Relative intensity at pCa 6.5 ([2]; CLZ-native) | Relative intensity at pCa 7.2 ([2]; CLZ-native) | Relative intensity at pCa 6.5 ([2]; CLZ-native, listed as Redq/QT) |
| --- | --- | --- | --- | --- | --- | --- | --- | --- | --- | --- |
| B1 | 0.90 | 0.92 | 296 ± 13 nM | 11.0 | 2.8 | 11 | 478 ± 39 nM | 13.0 | 7.1 | 13 |
| B2 | 0.91 | 0.95 | 290 ± 18 nM | 23.9 | 14.9 | – | 680 ± 33 nM | 9.1 | 13.2 | – |
